Results from patent JP2020002075A (dated 2020).
Positions count from the first letter of the chain named.

B1: clone 1 (第一世代交差性一本鎖可変領域断片) (scFv)
scFv: EVQLKESGGGLVQSGGSLRLSCAASGFSLTDYGVNWVRQAPGKGLEWVGVIWGGGNTYYNSALKSRFTISKDNSKNTLYLQMNSLRAEDTAVYYCAKHRGAWGQGTLVTVSAAGGGGSGGGGSGGGGSDIVMTQSPSTLAVSLGEKATINCKSSKSLLNSGNQKNYLIWYQQKPGQPPKLLIYGASTRESGVPDRFSGSVSGTDFTLTISSLQAEDLAVYYCQNDHTYPLTFGQGTKVEIKRTV
notes: From the Hu2LPMab-16 scFv library; also called クローン1; 第一世代交差性抗体; not shown: C-terminal FLAG tag and His tag
B2: clone 2 (scFv)
scFv: B1 scFv with S14P, T138N, K155Q, I168N, G184R, T231I
notes: From the Hu2LPMab-16 scFv library; also called クローン2; not shown: C-terminal FLAG tag and His tag

Legend:
[1] = biological target: T1, ラットポドプラニン (ラットポドプラニン提示CHO細胞, CHO-rPDPN) (rat, UniProt Q64294 23-166); assay: flow cytometry on CHO-rPDPN, fit f(x)=a*x/(x+Kd)
T1 construct: whole, on cells
T1 sequence (looked up): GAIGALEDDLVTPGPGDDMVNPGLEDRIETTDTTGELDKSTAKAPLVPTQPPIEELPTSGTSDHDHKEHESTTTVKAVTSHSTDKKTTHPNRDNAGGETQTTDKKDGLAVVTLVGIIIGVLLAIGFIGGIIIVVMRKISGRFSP

[2] = biological target: T2, ヒトポドプラニン (ヒトポドプラニン提示CHO細胞, CHO-hPDPN) (human, UniProt Q86YL7 23-162); assay: flow cytometry on CHO-hPDPN, fit f(x)=a*x/(x+Kd)
T2 construct: whole, on cells
T2 sequence (looked up): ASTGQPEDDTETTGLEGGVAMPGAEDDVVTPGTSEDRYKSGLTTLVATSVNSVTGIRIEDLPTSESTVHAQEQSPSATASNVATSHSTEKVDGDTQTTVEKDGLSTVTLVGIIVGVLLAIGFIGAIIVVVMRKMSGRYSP

[3] = biological target: T3, ポドプラニン (ポドプラニン提示CHO細胞, 種の記載なし); assay: flow cytometry; cells and species not named at this place
T3 construct: whole, on cells

Binder | Kd [1] [nM] | Kd [2] [nM] | Kd [3] [nM]
B1 | 108 | 6.3 | 108
B2 | 500 | 6.5 | 
